Results reported in patent US20060115897A1.

Target: C3b (UniProt P01024)
Test: cell-based or functional assay

C3b, sequence (P01024 749-1663 limits assumed, chain 1 of 2): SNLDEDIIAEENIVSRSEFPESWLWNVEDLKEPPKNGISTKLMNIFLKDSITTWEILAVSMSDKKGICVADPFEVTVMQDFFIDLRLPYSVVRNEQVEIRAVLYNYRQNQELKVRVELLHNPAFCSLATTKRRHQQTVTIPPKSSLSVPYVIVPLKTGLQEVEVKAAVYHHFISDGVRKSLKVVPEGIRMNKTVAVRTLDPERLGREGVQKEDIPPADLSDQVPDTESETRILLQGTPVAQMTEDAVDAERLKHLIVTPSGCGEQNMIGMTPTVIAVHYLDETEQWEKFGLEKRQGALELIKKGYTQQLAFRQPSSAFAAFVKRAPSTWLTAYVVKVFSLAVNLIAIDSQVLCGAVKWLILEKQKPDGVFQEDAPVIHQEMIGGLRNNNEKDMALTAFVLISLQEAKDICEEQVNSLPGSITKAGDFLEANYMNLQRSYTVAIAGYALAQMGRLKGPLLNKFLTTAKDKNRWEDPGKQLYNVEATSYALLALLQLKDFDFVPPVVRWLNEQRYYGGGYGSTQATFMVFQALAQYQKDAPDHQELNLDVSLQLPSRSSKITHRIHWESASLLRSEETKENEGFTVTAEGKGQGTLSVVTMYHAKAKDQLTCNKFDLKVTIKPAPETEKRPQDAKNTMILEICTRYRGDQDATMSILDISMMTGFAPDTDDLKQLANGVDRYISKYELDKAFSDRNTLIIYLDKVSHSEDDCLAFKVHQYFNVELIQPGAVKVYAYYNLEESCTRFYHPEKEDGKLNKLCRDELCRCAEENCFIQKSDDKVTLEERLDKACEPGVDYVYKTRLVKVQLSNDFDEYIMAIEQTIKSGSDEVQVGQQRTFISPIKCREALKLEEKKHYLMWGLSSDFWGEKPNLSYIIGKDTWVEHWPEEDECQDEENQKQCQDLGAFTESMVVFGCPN
C3b, sequence (P01024 23-667 limits assumed, chain 2 of 2): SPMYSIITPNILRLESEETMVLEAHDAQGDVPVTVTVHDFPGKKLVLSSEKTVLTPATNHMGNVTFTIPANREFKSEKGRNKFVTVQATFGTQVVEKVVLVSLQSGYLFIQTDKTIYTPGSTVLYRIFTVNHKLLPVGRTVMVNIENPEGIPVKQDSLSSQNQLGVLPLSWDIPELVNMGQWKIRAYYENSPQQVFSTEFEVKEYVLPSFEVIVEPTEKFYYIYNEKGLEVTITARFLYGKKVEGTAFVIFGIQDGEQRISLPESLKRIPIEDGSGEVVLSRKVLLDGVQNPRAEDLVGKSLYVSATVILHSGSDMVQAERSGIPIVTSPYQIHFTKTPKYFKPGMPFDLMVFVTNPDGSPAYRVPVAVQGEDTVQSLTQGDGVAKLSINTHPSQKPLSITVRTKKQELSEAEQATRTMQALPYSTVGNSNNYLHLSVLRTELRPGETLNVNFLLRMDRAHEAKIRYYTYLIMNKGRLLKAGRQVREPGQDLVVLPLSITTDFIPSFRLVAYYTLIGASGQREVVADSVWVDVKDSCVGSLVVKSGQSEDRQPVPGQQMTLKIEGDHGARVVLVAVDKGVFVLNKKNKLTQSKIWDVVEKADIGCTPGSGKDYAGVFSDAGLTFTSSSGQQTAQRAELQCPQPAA

Substance: soluble human CR1 (from UniProt P17927 42-1971) (receptor)
- speed as cofactor in the degradation of C3b, against SPICEhis: > 2 fold
